Reference: patent US20260125455A1

How the values were obtained:
[1] = molecular target: human complement protein C6 (human) (UniProt P13671); assay: ELISA, wells coated with 'C6 from Comptech', control mouse IgG; replicate 2
[2] = molecular target: C6: 1-934_10xHis (human); assay: ELISA, wells coated with the C6 construct, control mouse IgG; replicate 1
[3] = molecular target: C6Δ634: 1-634_10xHis (human); assay: as above
[4] = molecular target: C6Δ762: 1-762_10xHis (human); assay: as above
[5] = molecular target: C6Δ1-79: SP_79-934_10xHis (human); assay: as above
Sequence of C6Δ1-79: SP_79-934_10xHis (human) (P13671 79-934, stated change not applied): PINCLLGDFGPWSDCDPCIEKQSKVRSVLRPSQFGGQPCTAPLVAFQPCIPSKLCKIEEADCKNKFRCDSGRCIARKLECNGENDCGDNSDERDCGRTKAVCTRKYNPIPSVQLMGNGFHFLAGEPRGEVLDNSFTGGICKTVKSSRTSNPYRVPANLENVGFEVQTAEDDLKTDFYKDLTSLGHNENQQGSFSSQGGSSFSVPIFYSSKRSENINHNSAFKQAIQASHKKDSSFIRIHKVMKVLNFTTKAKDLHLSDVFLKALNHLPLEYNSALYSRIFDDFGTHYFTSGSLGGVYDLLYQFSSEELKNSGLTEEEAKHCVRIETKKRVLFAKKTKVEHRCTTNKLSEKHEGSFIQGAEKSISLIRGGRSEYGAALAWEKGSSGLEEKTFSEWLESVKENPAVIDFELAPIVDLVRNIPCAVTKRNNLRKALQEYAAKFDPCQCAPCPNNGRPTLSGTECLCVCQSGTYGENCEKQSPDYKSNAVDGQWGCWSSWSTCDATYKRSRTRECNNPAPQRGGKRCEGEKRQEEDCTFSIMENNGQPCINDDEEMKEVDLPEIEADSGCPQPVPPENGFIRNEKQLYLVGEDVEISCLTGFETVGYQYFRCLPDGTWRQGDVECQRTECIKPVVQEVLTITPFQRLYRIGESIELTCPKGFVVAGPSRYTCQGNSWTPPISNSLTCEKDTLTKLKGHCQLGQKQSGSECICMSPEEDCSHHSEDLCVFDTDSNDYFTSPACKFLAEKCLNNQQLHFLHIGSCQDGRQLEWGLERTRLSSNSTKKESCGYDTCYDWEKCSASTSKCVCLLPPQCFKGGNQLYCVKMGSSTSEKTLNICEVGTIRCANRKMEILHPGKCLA

[6] = molecular target: C6 no His (human) (UniProt P13671); assay: ELISA, wells coated with 'C6 no His', control mouse IgG; replicate 2
Sequence of C6 no His (human) (P13671 22-934 limits assumed): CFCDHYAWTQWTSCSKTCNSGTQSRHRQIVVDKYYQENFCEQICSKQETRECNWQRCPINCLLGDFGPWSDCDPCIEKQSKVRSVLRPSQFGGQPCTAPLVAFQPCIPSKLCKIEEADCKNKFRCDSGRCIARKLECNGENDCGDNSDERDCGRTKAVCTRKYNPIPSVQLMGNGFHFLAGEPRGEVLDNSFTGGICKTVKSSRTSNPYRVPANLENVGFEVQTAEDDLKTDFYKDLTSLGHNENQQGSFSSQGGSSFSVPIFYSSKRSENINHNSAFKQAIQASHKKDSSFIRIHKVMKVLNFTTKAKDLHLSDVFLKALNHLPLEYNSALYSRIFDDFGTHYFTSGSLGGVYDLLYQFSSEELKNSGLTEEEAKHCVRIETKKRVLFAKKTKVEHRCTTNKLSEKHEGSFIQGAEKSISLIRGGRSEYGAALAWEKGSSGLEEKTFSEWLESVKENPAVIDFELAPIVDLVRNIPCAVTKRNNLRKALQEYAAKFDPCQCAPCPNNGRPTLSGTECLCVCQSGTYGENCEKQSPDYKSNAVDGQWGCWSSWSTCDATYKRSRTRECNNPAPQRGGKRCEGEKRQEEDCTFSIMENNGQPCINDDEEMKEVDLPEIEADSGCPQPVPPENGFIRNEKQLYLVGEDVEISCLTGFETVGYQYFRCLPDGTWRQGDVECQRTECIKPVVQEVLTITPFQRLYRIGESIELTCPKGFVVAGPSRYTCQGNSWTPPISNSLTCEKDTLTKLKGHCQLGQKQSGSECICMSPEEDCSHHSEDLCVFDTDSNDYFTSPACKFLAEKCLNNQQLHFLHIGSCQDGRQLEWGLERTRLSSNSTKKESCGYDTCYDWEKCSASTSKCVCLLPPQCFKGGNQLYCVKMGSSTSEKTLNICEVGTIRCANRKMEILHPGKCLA

[7] = molecular target: C6: 1-934_10xHis (human); assay: ELISA, wells coated with the C6 construct, control mouse IgG; replicate 2
[8] = molecular target: C6Δ634: 1-634_10xHis (human); assay: as above
[9] = molecular target: C6Δ762: 1-762_10xHis (human); assay: as above
[10] = molecular target: C6Δ1-79: SP_79-934_10xHis (human); assay: as above
[11] = molecular target: purified FIM1-2 domains of C6 (human) (UniProt P13671); assay: ELISA, wells coated with FIM1-2_His, control mouse IgG; replicate 2
Sequence of purified FIM1-2 domains of C6 (human) (P13671 766-934 limits assumed): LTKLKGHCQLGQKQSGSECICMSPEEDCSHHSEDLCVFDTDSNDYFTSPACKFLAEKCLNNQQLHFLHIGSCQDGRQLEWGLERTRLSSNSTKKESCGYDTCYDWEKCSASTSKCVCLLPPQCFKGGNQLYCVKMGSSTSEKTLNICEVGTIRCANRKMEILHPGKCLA

[12] = molecular target: human complement protein C6 (human) (UniProt P13671); assay: ELISA, wells coated with 'C6 from Comptech', control mouse IgG; replicate 1
[13] = molecular target: C6 no His (human) (UniProt P13671); assay: ELISA, wells coated with 'C6 no His', control mouse IgG; replicate 1
[14] = molecular target: purified FIM1-2 domains of C6 (human) (UniProt P13671); assay: ELISA, wells coated with FIM1-2_His, control mouse IgG; replicate 1

Sequence of C6Δ634: 1-634_10xHis (human) (P13671 22-634, stated change not applied): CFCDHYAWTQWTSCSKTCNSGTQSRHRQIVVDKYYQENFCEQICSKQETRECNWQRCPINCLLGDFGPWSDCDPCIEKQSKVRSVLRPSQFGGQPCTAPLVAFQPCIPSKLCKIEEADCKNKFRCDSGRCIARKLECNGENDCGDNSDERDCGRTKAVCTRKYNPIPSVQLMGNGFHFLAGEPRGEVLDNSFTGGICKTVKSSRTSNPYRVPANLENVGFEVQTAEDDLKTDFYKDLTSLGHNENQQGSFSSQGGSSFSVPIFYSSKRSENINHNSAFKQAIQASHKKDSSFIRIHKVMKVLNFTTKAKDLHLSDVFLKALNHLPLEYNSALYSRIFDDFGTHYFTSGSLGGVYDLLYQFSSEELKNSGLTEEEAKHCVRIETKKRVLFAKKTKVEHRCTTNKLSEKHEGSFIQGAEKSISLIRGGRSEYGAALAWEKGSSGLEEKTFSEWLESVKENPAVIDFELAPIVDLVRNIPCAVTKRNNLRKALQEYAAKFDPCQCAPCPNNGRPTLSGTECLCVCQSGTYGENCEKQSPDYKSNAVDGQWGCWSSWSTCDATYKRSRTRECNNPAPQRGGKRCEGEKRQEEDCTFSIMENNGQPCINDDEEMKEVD
Sequence of human complement protein C6 (human) (P13671 22-934 limits assumed): as the sequence (P13671 22-934 limits assumed) above
Sequence of C6: 1-934_10xHis (human) (P13671 22-934): as the sequence (P13671 22-934 limits assumed) above
Sequence of C6Δ762: 1-762_10xHis (human) (P13671 22-762, stated change not applied): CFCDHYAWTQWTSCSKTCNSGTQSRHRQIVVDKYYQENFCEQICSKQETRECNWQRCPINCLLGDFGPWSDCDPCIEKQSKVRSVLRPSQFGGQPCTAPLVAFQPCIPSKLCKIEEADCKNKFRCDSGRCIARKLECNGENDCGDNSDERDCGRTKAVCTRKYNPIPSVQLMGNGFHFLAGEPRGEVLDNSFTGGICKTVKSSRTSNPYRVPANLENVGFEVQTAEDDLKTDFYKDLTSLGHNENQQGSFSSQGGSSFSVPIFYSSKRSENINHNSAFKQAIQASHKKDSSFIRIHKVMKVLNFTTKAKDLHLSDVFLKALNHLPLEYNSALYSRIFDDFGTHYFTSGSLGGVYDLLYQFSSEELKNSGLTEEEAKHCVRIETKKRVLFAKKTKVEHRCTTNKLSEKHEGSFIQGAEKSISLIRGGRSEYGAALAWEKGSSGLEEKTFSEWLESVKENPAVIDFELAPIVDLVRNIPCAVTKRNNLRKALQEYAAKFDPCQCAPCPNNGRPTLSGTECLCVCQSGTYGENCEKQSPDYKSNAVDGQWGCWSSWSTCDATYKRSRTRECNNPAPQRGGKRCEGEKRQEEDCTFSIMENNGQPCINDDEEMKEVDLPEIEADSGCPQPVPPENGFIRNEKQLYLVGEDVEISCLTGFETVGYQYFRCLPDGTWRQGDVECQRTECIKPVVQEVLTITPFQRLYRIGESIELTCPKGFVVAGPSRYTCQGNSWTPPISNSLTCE

ELISA plate reading (no name or unit printed) [1]: 0.0728
ELISA plate reading (no name or unit printed) [2]: 0.0472
ELISA plate reading (no name or unit printed) [3]: 0.0441
ELISA plate reading (no name or unit printed) [4]: 0.0623
ELISA plate reading (no name or unit printed) [5]: 0.0811
ELISA plate reading (no name or unit printed) [6]: 0.115
ELISA plate reading (no name or unit printed) [7]: 0.0481
ELISA plate reading (no name or unit printed) [8]: 0.0472
ELISA plate reading (no name or unit printed) [9]: 0.0648
ELISA plate reading (no name or unit printed) [10]: 0.0935
ELISA plate reading (no name or unit printed) [11]: 0.0429
ELISA plate reading (no name or unit printed) [12]: 0.0666
ELISA plate reading (no name or unit printed) [13]: 0.0488
ELISA plate reading (no name or unit printed) [14]: 0.0413
Substance: mIgG (antibody)
